{"source": "paper PMC2739207", "about": "(BMC Structural Biology, 2009)", "key": {"[1]": {"biological_target": "T1, 40 kDa C-terminal fragment of the lysosomal 66.3 kDa protein from mouse (C249-D594) (mouse, UniProt Q3TCN2 249-594, N-glycans at N441 and N520; C249 partially oxidized, modeled as cysteine sulfonic acid (OCS))", "T1 construct": "lysosomal 66.3 kDa protein, mouse; C-terminal proteolytic fragment beginning at C249; ordered in 3FGR and 3FGT: C249-P592; W593, D594 and the eleven tag residues are disordered; Made by cleavage of the 66.3 kDa proprotein between S248 and C249; also called 40 kDa fragment; chain B; source: gel filtration only for the batch of 3FGR", "T1 sequence (looked up)": "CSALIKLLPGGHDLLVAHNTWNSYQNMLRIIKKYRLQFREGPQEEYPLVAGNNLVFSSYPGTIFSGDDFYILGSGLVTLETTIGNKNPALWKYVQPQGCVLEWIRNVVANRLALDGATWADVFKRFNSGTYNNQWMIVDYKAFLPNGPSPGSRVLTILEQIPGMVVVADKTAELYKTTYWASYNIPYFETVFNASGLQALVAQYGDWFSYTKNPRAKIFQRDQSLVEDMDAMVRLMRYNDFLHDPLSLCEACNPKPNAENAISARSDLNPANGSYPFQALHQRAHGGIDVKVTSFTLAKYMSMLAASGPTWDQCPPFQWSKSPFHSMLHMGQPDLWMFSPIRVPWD", "assay": "crystal structure; crystals grown under acidic conditions (PEG 4000, NaAc/HAc pH 4.6, NH4Ac); crystal form I, space group C2, one molecule in the asymmetric unit; 3FGR at 1.8 Å, 3FGT at 2.4 Å", "conditions": "both partners purified"}, "[2]": {"biological_target": "the molecule itself", "assay": "SEC; gel filtration column during protein purification, after affinity and anion exchange columns; single 280 nm absorption peak; conditions as in ref. 17"}}, "data": [{"binder": "28 kDa N-terminal fragment of the lysosomal 66.3 kDa protein from mouse (L47-S248) (domain or fragment, UniProt Q3TCN2 47-248, looked up, N-glycans at N93, N115 and N236, lysosomal 66.3 kDa protein, mouse; N-terminal proteolytic fragment after cleavage between S248 and C249; residues L47-S248 by mass spectrometry; ordered in 3FGR: V63-T238 and G245-S248; Made by cleavage of the 66.3 kDa proprotein; it never stood apart from the 40 kDa fragment; The protein batch also holds the shorter form L47-S246 and the uncleaved protein; also called 28 kDa fragment; …) LPTLGPGWQRQNPDPPVSRTRSLLLDAASGQLRLEDGFHPDAVAWANLTNAIRETGWAYLDLSTNGRYNDSLQAYAAGVVEASVSEELIYMHWMNTVVNYCGPFEYEVGYCEKLKNFLEANLEWMQREMELNPDSPYWHQVRLTLLQLKGLEDSYEGRLTFPTGRFTIKPLGFLLLQISGDLEDLEPALNKTNTKPSLGSGS", "values": [{"measurement": "binding result", "setting": "[1]", "value": "binds"}]}, {"binder": "28 kDa N-terminal fragment of the lysosomal 66.3 kDa protein from mouse, shorter form (L47-S246) (domain or fragment, UniProt Q3TCN2 47-246, looked up, N-glycans at N115 and N236 seen in 3FGT, lysosomal 66.3 kDa protein, mouse; 28 kDa fragment truncated at the C-terminus by two residues; residues L47-S246 by mass spectrometry; ordered in 3FGT: D60-N239; residues after N239 are disordered in the structure; also called shorter version of the 28 kDa fragment; chain A of 3FGT; source: HT1080 human fibrosarcoma cells, overexpressed, purified (original protocol lacking a gel filtration)) LPTLGPGWQRQNPDPPVSRTRSLLLDAASGQLRLEDGFHPDAVAWANLTNAIRETGWAYLDLSTNGRYNDSLQAYAAGVVEASVSEELIYMHWMNTVVNYCGPFEYEVGYCEKLKNFLEANLEWMQREMELNPDSPYWHQVRLTLLQLKGLEDSYEGRLTFPTGRFTIKPLGFLLLQISGDLEDLEPALNKTNTKPSLGS", "values": [{"measurement": "binding result", "setting": "[1]", "value": "binds"}]}, {"binder": "lysosomal 66.3 kDa protein from mouse (natural protein, UniProt Q3TCN2 47-594, looked up, N-glycans at N93, N115, N236, N441 and N520; mannose 6-phosphate containing, lysosomal 66.3 kDa protein, mouse; proprotein after removal of the signal peptide, L47-D594; ordered in 3FGW: P61-N239 and G245-D594; The preparation on the gel filtration column was a mixture of the uncleaved chain and the cleaved form (28 kDa plus 40 kDa fragments); the dimer is told of the 66.3 kDa protein as a whole; also called uncleaved 66.3 kDa protein; uncleaved form (3FGW)) LPTLGPGWQRQNPDPPVSRTRSLLLDAASGQLRLEDGFHPDAVAWANLTNAIRETGWAYLDLSTNGRYNDSLQAYAAGVVEASVSEELIYMHWMNTVVNYCGPFEYEVGYCEKLKNFLEANLEWMQREMELNPDSPYWHQVRLTLLQLKGLEDSYEGRLTFPTGRFTIKPLGFLLLQISGDLEDLEPALNKTNTKPSLGSGSCSALIKLLPGGHDLLVAHNTWNSYQNMLRIIKKYRLQFREGPQEEYPLVAGNNLVFSSYPGTIFSGDDFYILGSGLVTLETTIGNKNPALWKYVQPQGCVLEWIRNVVANRLALDGATWADVFKRFNSGTYNNQWMIVDYKAFLPNGPSPGSRVLTILEQIPGMVVVADKTAELYKTTYWASYNIPYFETVFNASGLQALVAQYGDWFSYTKNPRAKIFQRDQSLVEDMDAMVRLMRYNDFLHDPLSLCEACNPKPNAENAISARSDLNPANGSYPFQALHQRAHGGIDVKVTSFTLAKYMSMLAASGPTWDQCPPFQWSKSPFHSMLHMGQPDLWMFSPIRVPWD", "values": [{"measurement": "stoichiometry N", "setting": "[2]", "value": 2}]}]}
